One experiment addresses T1, ARR12 (133-596) (Arabidopsis, UniProt P62598 133-596).
T1 construct: range 133-596; Fused to a YFP fragment for BiFC; also called C-terminal domain of ARR12
T1 sequence (looked up): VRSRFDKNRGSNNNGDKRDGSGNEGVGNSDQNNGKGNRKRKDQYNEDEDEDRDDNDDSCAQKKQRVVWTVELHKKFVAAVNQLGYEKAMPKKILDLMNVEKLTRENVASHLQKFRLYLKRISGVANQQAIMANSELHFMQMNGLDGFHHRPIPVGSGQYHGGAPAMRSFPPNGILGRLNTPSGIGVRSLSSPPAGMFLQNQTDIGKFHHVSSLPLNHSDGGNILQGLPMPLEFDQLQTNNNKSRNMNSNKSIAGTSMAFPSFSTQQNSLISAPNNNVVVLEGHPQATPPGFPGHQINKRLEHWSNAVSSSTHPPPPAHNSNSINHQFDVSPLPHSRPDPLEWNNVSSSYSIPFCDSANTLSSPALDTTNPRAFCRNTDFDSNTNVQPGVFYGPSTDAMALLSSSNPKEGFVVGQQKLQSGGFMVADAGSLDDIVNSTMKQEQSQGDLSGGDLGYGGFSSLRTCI
The experiment can be described thus: BiFC with ARR fragments.

Another experiment addresses T2, ARR2 (Arabidopsis, UniProt Q9ZWJ9 1-664, limits assumed).
T2 construct: also called type-B response regulator ARR2
T2 sequence (looked up): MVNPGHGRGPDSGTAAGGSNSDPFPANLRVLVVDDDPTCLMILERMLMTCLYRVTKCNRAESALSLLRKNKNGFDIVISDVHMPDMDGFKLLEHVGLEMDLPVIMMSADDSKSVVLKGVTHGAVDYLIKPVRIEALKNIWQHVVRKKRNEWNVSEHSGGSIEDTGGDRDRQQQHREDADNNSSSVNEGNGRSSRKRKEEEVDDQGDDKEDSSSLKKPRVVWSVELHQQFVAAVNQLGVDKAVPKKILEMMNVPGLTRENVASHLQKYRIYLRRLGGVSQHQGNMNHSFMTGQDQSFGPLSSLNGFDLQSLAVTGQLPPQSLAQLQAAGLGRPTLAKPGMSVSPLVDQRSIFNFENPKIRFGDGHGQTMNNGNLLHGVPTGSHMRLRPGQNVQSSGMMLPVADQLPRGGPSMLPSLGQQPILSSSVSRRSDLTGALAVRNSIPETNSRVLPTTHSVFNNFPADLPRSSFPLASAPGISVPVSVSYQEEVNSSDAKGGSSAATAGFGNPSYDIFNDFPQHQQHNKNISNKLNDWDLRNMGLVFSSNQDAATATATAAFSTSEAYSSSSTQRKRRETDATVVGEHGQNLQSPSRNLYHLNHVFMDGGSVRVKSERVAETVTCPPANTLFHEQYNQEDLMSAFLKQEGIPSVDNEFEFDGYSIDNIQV
The experiment can be described thus: yeast two-hybrid (LexA-KMD bait, B42-ARR prey, X-gal). The method, boiled down:
(§1)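 LexA DNA-binding-domain KMD bait fusions (pGilda) and B42 activation-domain type-B ARR prey fusions (pJG4-5) were co-transformed into yeast EGY48 carrying the lacZ reporter plasmid pSH18-34. Interaction was scored by colour on X-gal medium.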

The target of another experiment is T3, ARR21 (subfamily-3) (Arabidopsis, UniProt Q9LYP5 1-613, limits assumed).
T3 sequence (looked up): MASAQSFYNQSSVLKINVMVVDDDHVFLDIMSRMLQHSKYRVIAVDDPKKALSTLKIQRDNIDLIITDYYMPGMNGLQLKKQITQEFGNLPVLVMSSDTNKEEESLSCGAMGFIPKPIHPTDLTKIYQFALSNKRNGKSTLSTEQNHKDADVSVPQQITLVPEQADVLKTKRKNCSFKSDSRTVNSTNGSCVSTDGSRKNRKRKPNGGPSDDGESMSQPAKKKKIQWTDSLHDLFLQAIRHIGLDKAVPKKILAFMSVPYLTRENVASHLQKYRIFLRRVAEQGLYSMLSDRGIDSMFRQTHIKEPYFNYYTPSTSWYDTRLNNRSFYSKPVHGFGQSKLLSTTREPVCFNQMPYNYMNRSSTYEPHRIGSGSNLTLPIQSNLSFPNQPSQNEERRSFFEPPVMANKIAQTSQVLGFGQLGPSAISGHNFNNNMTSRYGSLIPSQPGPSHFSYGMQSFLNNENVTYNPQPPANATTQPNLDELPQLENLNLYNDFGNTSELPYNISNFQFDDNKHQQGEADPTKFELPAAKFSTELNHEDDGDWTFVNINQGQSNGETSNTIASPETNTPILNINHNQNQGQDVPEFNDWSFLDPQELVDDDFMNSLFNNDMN
The experiment is described as above. The method, boiled down:
as §1

B1: KISS ME DEADLY 1 (KMD1) (other, Arabidopsis, UniProt Q9M8L2 1-354, looked up)
chain: MELIPNLPDDVARECLLRSSYQQFPVIASVCRAWNREVSLSQFLHQRKASRHSQELLILSQARVDPAGSGKIIATPEYRISVLESGSGLWTELPPIPGQTKGLPLFCRLVSVGSDLIVLGGLDPITWQAHDSVFVFSFLTSKWRVGATMPGVRRSFFGCASDSDRTVLVAGGHNEEKCALTSAMVYDVSEDKWTFLPDMARERDECKAVFHAGRFHVIGGYATEEQGQFSKTAESFDVSTWEWGPLTEDFLDDTGDTVSPPTCVAGGDLYACWGGDVMMFLNDKWQKVGQIPADVYNVTYVAVRPGMLIVIGNGKALAGYGEATVGYICDLSSSRWVKLETHGGHVQAGCFLEV
notes: Full-length protein; also called At1g80440
B1: the binding result with ARR12 (133-596) was “binds”; in the experiment with ARR2, “binds”; with ARR21 (subfamily-3) it was “no binding”.

B2: KISS ME DEADLY 2 (KMD2) (other, Arabidopsis, UniProt Q9LMR5 1-359, looked up)
chain: MELIPDLPETVAYECLLRSSYKQFPLMASVCKLWQREISLSDFFRHRKASGHSQELVVLSQARVDPVKELVSGNKTIPTPVYRISVLELGTGLRSELPPVPGHSNGLPLFCRLVSVGSDLVVLCGLDPVTWRTSDSVFVFSFLTSTWRVGKSMPGGPRSFFACASDSQRNVFVAGGHDEDKNAMMSALVYDVAEDRWAFLPDMGRERDECTAIFHAGKFHVIGGYSTEEQGQFSKTAESFDVTTWRWSPQGEEFLSSEMTMWPPICAAGENGDLYACCRRDLMMMKDDTWYKVGNLPADVCNVSYVAIRRSGNLVVIGSARYGEPSVGYNWDMSNSRWLKLETHDKYEGHVQAGCFLEI
notes: Full-length protein; LexA fusion in yeast two-hybrid, YFP^N or YFP^C fusion in BiFC; also called At1g15670
In the case of B2, the binding result is given as “binds” with ARR2 and “no binding” in the experiment with ARR21 (subfamily-3).
